Measured values reported in the DeepSol protein solubility set.

Assay: soluble on expression in E. coli; label from the status in PepcDB or PDB records

Sequence | soluble on expression in E. coli
MADPTFAEHVATTNSRLASLRANLIDVSTFPEACSELTKWCQDQRAFTAHFEDNLMMALEAAMDYGTRENYDYMLTHGLVGACFTHRKHLSKPAATRIGRWYEQMRRLKKNGGKRKRAPPKPKDPALQASSQPTGTLPVLTSPSCPQNGQQLPTENNNFMFSPNSSDGLVLVIFSSSINFSLKIRVNAKKRKF | not soluble
MGSDKIHHHHHHMKIDTLGVQAFVAIADGGSFRQAADTLHVTQTAITQRLRKLESFLGVALVERTTRRTTLTEIGRRFLPQARRLLNELSDALTEIRETGLSQRGDVTIACVPTVGVQYLPRILRAFSGHRPHDRVKILDHASASVLQAVLRREAEFGISIAGDQHPELVSVPLTHDPYVLVCRDDHPLAKRRRIRWAALQPHPLIFAGEVSGNRGLLDGALKTSGVSLHSFYEVQRSSTALGLVAEGLGAAVVPKLAVQKNAYPMIRTIELVEPSVSRTLVLVKRKAAQLSPAAQALYDMIVERATPGR | not soluble
MTTFIQLHLLTAYPAANLNRDDTGAPKTVVLGGATRLRISSQSLKRAWRTSELFEQALAGHIGIRTGRIAREAAQILVDSGIDAKKAVEYVKNIANCFGKVKEDKKPKDELTNAETEQLVHISPAEFEAVKALARRLAEEKRPATEEEAELLRHDRMAVDIAMFGRMLAKKTDFNVEAACQVAHAFGVSETIIEDDFFTAVDDLRQASAEDAGAGHLGETGFGSALFYTYICIDKDLLVKNLNDNEELANKTLRAFTEAALKVSPTGKQNSFASRAYASWALAEKGTDQPRSLAAAFYEPINGTDQLNVAVKRITSLHKNMNKVYGQRTDTASFDVMNQQGSMEDVLDFICA | not soluble
SMGGRRAVRVWCDGCYDMVHYGHSNQLRQARAMGDYLIVGVHTDEEIAKHKGPPVFTQEERYKMVQAIKWVDEVVPAAPYVTTLETLDKYNCDFCVHGNDITLTVDGRDTYEEVKQAGRYRECKRTQGVSTTDLVGRMLLVTKAHHSSQEMSSEYREYADSFGKCPGGRNPWTGVSQFLQTSQKIIQFASGKEPQPGETVIYVAGAFDLFHIGHVDFLEKVHRLAERPYIIAGLHFDQEVNHYKGKNYPIMNLHERTLSVLACRYVSEVVIGAPYAVTAELLSHFKVDLVCHGKTEIIPDRDGSDPYQEPKRRGIFRQIDSGSNLTTDLIVQRIITNRLEY | soluble
MSLSDDTSVVQDYIKSRDALVVLEQKMPLRDAFGGRYADIFSRFPGVIGRDGFEYFYRYFKNHVAVDVGTATAVTTLRVQAYTSKDAYLINKYLLEMAEKRVNELNDRSRQDSLRYALAEVAGAEAKVKAASTALSKFRSKASLFDPDRQSNIQLELVAKLRGELIAKQAQLSQLRMLSPQNPQIPSLAASIGALEASIASEKGGVAGEKNSLSDRSVEYQRLALEQSFGEKLLASALTSLEQARADAERKQIYLERVAEPNEPDVAMEPKREGHHHHHH | soluble
MGSDKIHHHHHHMTAVKHAFTELPTIDIRDLAGDDLARRQAVADAIGRAAREVGFFYITGHGIDPALIAGVREAAKQIFALPMEEKMNYYIGHSKSHKGYVPEGEEIYGSGKPDHKEAFDIGFQAADDHPLVLAGTPLIGANEWPDLPDFRARVLAYYDAVFALGHRLFDAFALALGLPEGYFKPMVTCPPAKLRLIHYPFDASVEDVPGIGAHTDYECFTLLLADQPGLEVLNEESVWIDAPPVKNAAGEEAFVINIGDMLEVLSAGTFVATAHRVRKVPQERYSFPLFFACDYHTLIRPLPTFLAAGEAGEYQELSIGEHMWSQALQTYRYLREKVNRGELQLPERARGTNTFGHLKKQAQQKNP | not soluble
MKIGFIGVGKMASAIITGLKKTDFELIISDSSLKAGQDKAEALGVAVAQSHQELVDEVDLLVLGVKPQVLASVLNPLILTKPILSMAAGTSLEYLDKLSQADLPIIRIMPNLNAKILQSSTAICRNDKVSDQLFAIAKQITDSFGTTFEIAEKDFDTFTALAGSSPAYIALFIEAMSKAGLKHGFPKDLAFKIVSQTVLATTSNLIQGQEKPNDLIDKVSSPGGTTIAGLLDLEKTGFTASTISAIDATIDKSKNMLEHHHHHH | not soluble
HMSFSHVCQVGDPVLRGVAAPVERAQLGGPELQRLTQRLVQVMRRRRCVGLSAPQLGVPRQVLALELPEALCRECPPRQRALRQMEPFPLRVFVNPSLRVLDSRLVTFPEGCESVAGFLACVPRFQAVQISGLDPNGEQVVWQASGWAARIIQHEMDHLQGCLFIDKMDSRTFTNVYWMKVND | soluble
MNKNGFSRCADIYIGRLREEGRYSTAHVYQNALLSFSKFCGVHSVSFRQVTRERLRCYEQHLYECGLKPNTISTYMRMLRSIYNRGVEAGSAPYVHRLFHEVYTGVDVRQKRALPVVALRRLLYEDPQSDRLRRTQAIAALMFQFCGMSFADLSHLEKSALDSNVLRYNRVKTKTPMSVEVLDSAQEMLDQLRNRQSPRPGCPDYLFGILHGDKKRKDERAYREYQSALRRFNYCLKSLAKRLRLNFPVTSYTLRHSWATTAKYRGVPIEMISESLGHKSIKTTQIYLKGFELKERTEVNRMNLSYVKRCGVGQCI | not soluble
MGSDKIHHHHHHMTRTEHEISFGPYTAVATTRGGALRELRHEGRDLVVGFAADGEIPDYRGVICAPWPNRLAGGRYSFEGKDYQAVVNEEQRGTALHGLVFGAVWELLEHTASSVRLGTRIEPGDGYPGRLDVSVDYELRADGLHSTVRARNVGVEAAPYGACPHPYLIAGPAPLDEWSVQIPATEFMEVSADRLLPEGMAGVEGHAFDFRTEKVLGSVQIDHAFTGLIPNADGLAAVRVHDPSGTGVELEWDATWPWLQIHTADKPSGPTRLGLAVEPMTCPPDAFNSGTDVLRLAPGESHEASWTIRALSR | not soluble
MGSDKIHHHHHHMRCPWRKTRRHSDNGWYGPRNQIRPDDHRLHRKVRKSRGDSRRAGNGSPRARCFEGAQRRGKSDGLSECGRMKNLLEMVELVRGKRMKIAVGAAEDEEVLKAVARAKEEEIVDPVLFGKRKDIETLVERMNLELEAEIVHVEDPFEAVRKAVESVSRNETQILMKGKIKTSDLFSVFLKKEYGLRTGRTLSAVSVHEVPGYHKILIISDGGLVISPNLQQRMDIVENSILVARALGIEKPKIALLGTGDLKSPLTLEIAALSKIFQQRNDCIVDGPLTLDLAISEELASKAGNSPVAGDADILIVPSIETGNILSKSLVYMARGRAAIVVVGGRVPVVLTSRADDEETRFLSIALSVLVAQKKG | not soluble
MSLIVDREELEYDGSQLRRAFAHERYGIKGRAVVVFRGPMDVRTEYTADAEDVGSPIRGNDVLHLLVDDPTRADPLVAGLLQRLLVVVTKEVIEKELSTDLDRDGDDLLHDGRKLTVSVFKPAGPGSLAHLGINVTTEGVPVPASSLRDLGYRGDPLDLGRRVAVEFVREITDVELDLTKIRWEGHHHHHH | soluble
MVKWQATLSTTEPYNYIGIQNVRQGNRNTEVLEAILVENALPLDLTGCEVFFESVIDNKYPIQRAAKIVNAKKGIIQYTFDEYSMQSLHRQEAYFSIHKGDNLIGSTQNFSYFVVNAASKTEGEMGSYWQSIEDLIADMTAFINENKGDFTAWMNARKEEFEKWRKNQQDTFEAWRNGQETDYLKWFESIKDILKTIDPGGTMLAELMDARVDIQGVRHNSLSERLLADMNYLYHRLEERLYTIKYGNVNTLEILEDDSFSKNHEVEVLGTVNHPIEEGALIIATVDDSKQNVFTIEGVDNG | not soluble
MKVTVHAKNIELTNALKDCVEKKISKLSKYFEPGVEAKATLSVEKNKQIVEIMIPFNGILLRGEESTDDMYKSIDLVEEKIERQIRKQKTRLSKKNRYDSLRFAHIDPIEDMKEEKEAKIVKTKRFDVKPMGAEEAVLQMELIGHDFFVFQDPETNQLNVVYKRKDGNYGLIEPGLGEELEHHHHHH | soluble
IFNGRPAQKGTTPWIAMLSHLNGQPFCGGSLLGSSWIVTAAHCLHQSLDPKDPTLRDSDLLSPSDFKIILGKHWRLRSDENEQHLGVKHTTLHPQYDPNTFENDVALVELLESPVLNAFVMPICLPEGPQQEGAMVIVSGWGKQFLQRFPETLMEIEIPIVDHSTCQKAYAPLKKKVTRDMICAGEKEGGKDACAGDSGGPMVTLNRERGQWYLVGTVSWGDDCGKKDRYGVYSYIHHNKDWIQRVTGVRN | soluble
MSNAMPWVRFYLYDWISGTNGMTSEQRGVYITLLVCMYEKKEPLKTDFETLARVCHCSQKKFAAIVEYLMRNDKLIEIDGRLWNLDVEEELNNLSEELDNFTFNNNEEKEVKYVN | not soluble
MQAKLFMIPWLIELVISQRAPSPPNPTPSAQVLTNDLLVDAHRRHFLDMLRRQQQINDALLLNNALLHPHPLPPLHIPANPAIQELNLPPAPPLFNPFIPAQVANQGPTSKLGTYGKDDEPEKKSEELKETPEEKEGTVGAPVRTDLVKKTLAGVKTVSIQKKGDVTGETLTTMEVVAPTTSTISPEDLEVVQLFKKLNLSKEETKSIVERVEQVVREKLMSKMDTSSTTTEVTTVVTTPSTTTTTTSTTQAPTTTTKEFIEEEIEEEDYSVATTAPPPQMHIRSEENLILQRNNLKHHPIKLQEKKLPESLESEEISQGSIKTSLTHLPIFVANEEEDVASLNPKSALHKRILIASQDREKESDRDLLVDFATGAPLDLSEPDVTKSKYEASPVATSPATLAPAQVTTRPVAPPRLNYHERTDFERLASDYRRRLENTGDINKILQKISENAYISLVERGGRRRLFGS | not soluble
MGSDKIHHHHHHMILDTAPHISSVGQVKEFFLARQPILDQNQNLIAYELLFRRAGVRAPVSAEDTRGAASIIAHTSELGIENVTGSALGFFNVNSTLLMGDLVNFLPAEKVVFEFPQTDKITPELVRRVAELAKAGYRFALDDVITLSEYIKPLLPFVEIIKIDTSVMTYADLAMLVRQFKQARKVLLADKVETLEQFQNCHELGFDYYQGYYFAKPALLSGKKLATSQLAIMELMTLVARDADTIEIEQRIKKEVSLCLSLLRLVNTPAMGVTKSIHSLSEALMVLGRRQLQRWLQIQIYVGPDPQIQFGSPLLLLAATRGKLLELVAQKLQPANRSMADIAFTVGILSLLDALFGQHMERILRQIVLSEEITEALLYRTGFYGDLLKLAEYLEKPGEAGRLLVPLLARLGLPIEELYPFQLEAFEWSNSLLPTL | not soluble
MSSGNIHIHSMTGFANAAAECGSKRINLDLRAVNHRFLDIQIRMPDDLRYLESGIREKISSHIARGKVECKIQIQDAENGSQSLELNRDLVGQLAEINKDLRKHHDLAKLGVADILRFPGVLASQRENTEELAKSITELTEKALKDFTAARKREGKKLGEHLLQRLEAMEEIIDALSELFPTLLETHKEKIRARLVEAVGSIDNDRLQQEFALFIQKSDIDEEFSRLRTHIAEVRRIVTEHKGSSGKRLDFLMQELNREANTLGSKSIAAECTQASVELKVLIEQMREQVQNIE | not soluble
MAKEFLIELGTEELPPKQLRTLAEAFAANFAAELATADIAHEGVTWFATPRRLALKVANLAESQPDRVVEKRGPAVNVAFDADGKPTKAAEGWARGNGITVEQAERLVTDKGEWLLFKEQVQGQQTASVVVEMAAKALANLPIAKPMRWGDKETQFIRPVKTLTILFGSELIQGEILGVASARTLRGHRFMGEAEFTIESAEQYPAILEERGKVIADYATRKAMIIEGSQQAAQQLGGIADLEDALVEEVTSLVEWPVVMTAKFEEKFLKVPAEALVYTMKGDQKYFPVYDASKKLLPNFIFVSNIESKEPRHIVEGNEKVVRPRLADAEFFFNTDRKRPLVDRLPLLENAIFQQQLGTIKDKTDRITELAGYIAEQIGADVEKSKRAGLLAKCDLMTSMVFEFTDTQGVMGMHYARHDGEAEEVAVALNEQYMPRFAGDELPSRGVSAAVAMADKLDTIVGIFGIGQAPKGSDPFALRRASLGVLRILVEYGYQLDLVDLIAKAKSLFGDRLTNANVEQEVIEFMLGRFPTWYQDAGFSIDIIQAVLARNPTKPADFDQRVKAVSHFRALEEAEALAAANKRVGNILAKYDGELGEEIDLALLQEDAEKALAEAVEIMAEALEPAFATGNYQEALSKLAGLRAPVDAFFDNVMVMADDEALKKNRLTLLNKLRNLFLQIADISLLQK | not soluble
